T1: human complement C2 in normal human serum (human, UniProt P06681 21-752)
T1 sequence: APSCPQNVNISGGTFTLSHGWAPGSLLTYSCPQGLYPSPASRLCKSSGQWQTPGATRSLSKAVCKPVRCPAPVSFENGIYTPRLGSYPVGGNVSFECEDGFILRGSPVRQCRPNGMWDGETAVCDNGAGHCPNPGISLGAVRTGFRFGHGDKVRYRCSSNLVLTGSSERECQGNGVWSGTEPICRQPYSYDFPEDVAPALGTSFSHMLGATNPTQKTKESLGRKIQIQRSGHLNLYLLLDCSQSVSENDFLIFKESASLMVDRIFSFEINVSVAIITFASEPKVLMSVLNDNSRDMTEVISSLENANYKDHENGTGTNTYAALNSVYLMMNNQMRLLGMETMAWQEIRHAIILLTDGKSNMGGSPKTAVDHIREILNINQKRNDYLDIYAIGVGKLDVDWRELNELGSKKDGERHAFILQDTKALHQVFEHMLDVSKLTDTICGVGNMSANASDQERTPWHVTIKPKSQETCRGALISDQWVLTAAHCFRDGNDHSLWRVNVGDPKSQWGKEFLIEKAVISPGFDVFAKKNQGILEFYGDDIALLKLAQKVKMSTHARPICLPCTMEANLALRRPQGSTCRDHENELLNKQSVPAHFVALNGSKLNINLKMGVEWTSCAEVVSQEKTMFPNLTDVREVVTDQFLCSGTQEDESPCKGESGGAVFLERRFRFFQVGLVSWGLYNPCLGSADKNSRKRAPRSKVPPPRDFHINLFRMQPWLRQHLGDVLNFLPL

T2: recombinant human C2a, C-terminal 6His-tag, made in house (CHO cell expression) (human, UniProt P06681 244-752)
T2 sequence: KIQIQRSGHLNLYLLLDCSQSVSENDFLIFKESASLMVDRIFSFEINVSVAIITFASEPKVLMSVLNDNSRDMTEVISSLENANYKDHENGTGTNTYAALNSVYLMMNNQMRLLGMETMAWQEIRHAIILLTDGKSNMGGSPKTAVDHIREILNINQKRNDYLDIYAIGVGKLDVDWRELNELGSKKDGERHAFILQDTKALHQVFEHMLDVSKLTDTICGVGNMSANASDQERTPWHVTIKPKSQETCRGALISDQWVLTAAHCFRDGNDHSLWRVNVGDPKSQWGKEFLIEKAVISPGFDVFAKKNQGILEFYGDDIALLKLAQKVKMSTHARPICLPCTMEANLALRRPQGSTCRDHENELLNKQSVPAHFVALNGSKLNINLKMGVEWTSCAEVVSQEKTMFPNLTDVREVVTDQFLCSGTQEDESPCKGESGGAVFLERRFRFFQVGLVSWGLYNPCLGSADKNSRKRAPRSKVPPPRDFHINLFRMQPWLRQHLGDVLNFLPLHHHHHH

T3: recombinant cyno C2a, C-terminal 6His-tag, made in house (CHO cell expression) (cynomolgus monkey, UniProt P06681 244-752 (human entry))
T3 chain: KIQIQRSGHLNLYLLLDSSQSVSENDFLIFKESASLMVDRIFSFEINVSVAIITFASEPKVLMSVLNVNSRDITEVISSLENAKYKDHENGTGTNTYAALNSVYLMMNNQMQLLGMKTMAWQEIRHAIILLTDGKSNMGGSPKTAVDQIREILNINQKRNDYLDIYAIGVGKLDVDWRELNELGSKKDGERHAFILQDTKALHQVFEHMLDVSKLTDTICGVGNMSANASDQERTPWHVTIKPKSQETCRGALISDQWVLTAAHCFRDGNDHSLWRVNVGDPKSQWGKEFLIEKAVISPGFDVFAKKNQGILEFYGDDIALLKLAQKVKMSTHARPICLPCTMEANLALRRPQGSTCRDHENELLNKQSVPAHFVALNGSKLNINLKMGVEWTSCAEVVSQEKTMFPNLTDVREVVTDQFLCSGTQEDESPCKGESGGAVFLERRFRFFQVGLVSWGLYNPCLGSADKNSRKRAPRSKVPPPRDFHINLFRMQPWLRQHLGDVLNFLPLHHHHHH

T4: recombinant human complement C2 (NP_000054.2), C-terminal 6His-tag, made in house (CHO cell expression) (human, UniProt P06681 21-752)
T4 construct: a linker before the tag is not described; also called human C2; Human C2
T4 sequence: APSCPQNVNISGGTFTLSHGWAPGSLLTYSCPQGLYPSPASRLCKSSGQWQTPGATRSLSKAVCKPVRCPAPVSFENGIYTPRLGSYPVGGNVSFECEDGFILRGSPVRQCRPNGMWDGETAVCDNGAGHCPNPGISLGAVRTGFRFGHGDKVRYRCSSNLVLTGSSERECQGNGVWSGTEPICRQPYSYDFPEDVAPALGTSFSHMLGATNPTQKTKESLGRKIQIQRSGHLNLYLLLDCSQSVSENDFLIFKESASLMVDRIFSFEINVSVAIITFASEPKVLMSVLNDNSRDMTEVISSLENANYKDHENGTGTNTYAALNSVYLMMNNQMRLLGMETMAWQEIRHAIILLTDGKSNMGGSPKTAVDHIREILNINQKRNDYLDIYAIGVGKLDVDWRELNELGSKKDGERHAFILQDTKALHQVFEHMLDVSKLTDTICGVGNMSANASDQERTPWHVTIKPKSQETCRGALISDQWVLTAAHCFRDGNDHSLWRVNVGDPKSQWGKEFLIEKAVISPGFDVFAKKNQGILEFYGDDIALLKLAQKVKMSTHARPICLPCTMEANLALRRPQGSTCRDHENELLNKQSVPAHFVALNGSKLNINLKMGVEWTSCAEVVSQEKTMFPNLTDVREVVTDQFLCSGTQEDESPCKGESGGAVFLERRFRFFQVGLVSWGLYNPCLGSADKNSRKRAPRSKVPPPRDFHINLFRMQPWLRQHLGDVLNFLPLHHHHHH


Key:
[1] = biological target: T1, human complement C2 in normal human …; test: cell-based or functional assay
[2] = biological target: T2, recombinant human C2a, C-terminal …; test: ELISA
[3] = biological target: T3, recombinant cyno C2a, C-terminal …; test: ELISA
[4] = biological target: T4, recombinant human complement C2 …; test: BLI (Gator), antibody on probe; 600 s association at pH 7.4, 600 s dissociation at pH 5.8
Experimental: (§1) The histidine mutant constructs in Table 4 were tested for their pH-dependent dissociation from human C2. Probe-immobilized anti-C2 antibodies were incubated with C2 at pH 7.4 for 600s, followed by a 600s dissociation period in K Buffer at pH 7.4 or pH 5.8. The data were processed and analyzed by the Gator evaluation software.

[5] = biological target: T4, recombinant human complement C2 …; test: BLI (Gator); ratio of dissociation at pH 5.8 to pH 7.4
Experimental: as §1

Row | IC50, inhibition of sheep RBC lysis, 5% serum [1] | EC50 [2] | EC50 [3] | Dissociation (%) pH 5.8 [4] | Fold dissociation pH 5.8/pH 7.4 [5] | Binder
1 | 2.8 nM | 0.117 nM | 0.119 nM | – | – | anti-C2 antibody 69.44 (antibody, IgG4, V domains shown, Recombinant) VH: QVQLVQSGAEVKKPGASVKVSCKASGYSFTTYYMYWVRQAPGQGLEWMGIITPSGGSTTYAQKFQDRVTMTRDASTTTVYMELSSLRSEDTAVYYCARGYEGSYGFDHWGQGTLVTVSS VL: SYELTQPPSVSLSPGQTASITCSGDKLGNKYTCWYQQKPGQSPVLVIYQDNKRPSGIPERFSGSNSGNTATLTISGTQAMDEADYYCQTWDSSTAVFGGGTKLTVL
2 | 2.9 nM | – | – | 8.2% | 2.3 fold | anti-C2 antibody 3.2 (antibody, IgG4, V domains shown, Recombinant; also called WT; "WT" 3.2) VH: EVQLLESGGGLVQPGGSLRLSCAASGFTFRHYAMSWVRQAPGKGLEWVSLISGSGASTFYADSVKGRFTISRDNSENMLYLQMNSLRAEDTAVYYCAKDSLAVAGSEYFQHWGQGTLVTVSS VL: SYVLTQAPSVSVAPGQTARITCGGNYFGGKSVHWYQQRPGQAPVLVVYDDSDRPSGIPERFSGSKSGNTATLAISRVEAGDEAAYYCQVYDTSSDHWVFGGGTKLTVL

Reference: patent publication US20250376539A1 (KIRA PHARMACEUTICALS SUZHOU, published 2025)
